Source: patent US20240174727A1, “LONG-ACTING NATRIURETIC PEPTIDES AND USES THEREOF” (Eli Lilly and Company, priority 2022, published 2024)
Numbered stars: 1 amine (or outer) side, 2 acyl side, 3 side chain; on linkers, the order of the positions; unused ones are H or OH. Bridge positions count the residues as written; N and C are the ends. Square brackets hold non-standard residues; d marks the D form. Ends that are not written are not given here. * marks the point of attachment. thioacetal = thioacetal linkage between two cysteines (intrachain bond at the bracketed Cys); C20 diacid = O=C(O)CCCCCCCCCCCCCCCCCCC(=O)*; γGlu = O=C(O)[C@H](CCC(=O)[*:2])N[*:1]; 4Pal = N[C@@H](Cc1ccncc1)C(=O)O; Aib = CC(C)(N)C(=O)O; βAla = NCCC(=O)O

T1: rat NPRA (rat, UniProt P18910 29-1057)
T1 sequence (looked up): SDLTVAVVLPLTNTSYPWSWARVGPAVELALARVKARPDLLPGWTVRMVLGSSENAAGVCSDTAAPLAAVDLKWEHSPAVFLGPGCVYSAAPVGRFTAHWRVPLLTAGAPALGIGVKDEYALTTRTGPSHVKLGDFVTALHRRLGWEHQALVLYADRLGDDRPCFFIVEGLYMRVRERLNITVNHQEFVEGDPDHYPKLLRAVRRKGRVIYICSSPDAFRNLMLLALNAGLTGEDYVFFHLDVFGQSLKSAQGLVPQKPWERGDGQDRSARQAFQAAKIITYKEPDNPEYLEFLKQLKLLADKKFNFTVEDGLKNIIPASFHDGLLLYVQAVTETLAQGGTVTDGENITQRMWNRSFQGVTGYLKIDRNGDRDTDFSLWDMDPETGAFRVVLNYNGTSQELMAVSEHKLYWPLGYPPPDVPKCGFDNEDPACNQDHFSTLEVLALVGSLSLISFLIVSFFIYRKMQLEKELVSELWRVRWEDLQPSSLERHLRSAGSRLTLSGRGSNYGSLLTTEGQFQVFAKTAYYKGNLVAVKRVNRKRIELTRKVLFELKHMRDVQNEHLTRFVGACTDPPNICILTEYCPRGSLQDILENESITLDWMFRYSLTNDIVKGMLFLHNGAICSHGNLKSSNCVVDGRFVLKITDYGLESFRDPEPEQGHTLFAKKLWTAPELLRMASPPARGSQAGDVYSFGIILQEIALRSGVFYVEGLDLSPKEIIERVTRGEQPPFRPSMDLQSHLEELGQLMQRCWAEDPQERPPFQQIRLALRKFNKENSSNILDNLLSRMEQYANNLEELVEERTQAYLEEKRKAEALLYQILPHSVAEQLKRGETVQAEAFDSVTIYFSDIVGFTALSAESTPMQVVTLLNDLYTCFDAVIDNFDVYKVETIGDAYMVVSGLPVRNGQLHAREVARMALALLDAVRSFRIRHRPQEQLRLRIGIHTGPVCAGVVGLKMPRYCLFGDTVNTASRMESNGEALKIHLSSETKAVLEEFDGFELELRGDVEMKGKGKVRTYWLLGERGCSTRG

T2: human NPRA (human, UniProt P16066 33-1061)
T2 sequence (looked up): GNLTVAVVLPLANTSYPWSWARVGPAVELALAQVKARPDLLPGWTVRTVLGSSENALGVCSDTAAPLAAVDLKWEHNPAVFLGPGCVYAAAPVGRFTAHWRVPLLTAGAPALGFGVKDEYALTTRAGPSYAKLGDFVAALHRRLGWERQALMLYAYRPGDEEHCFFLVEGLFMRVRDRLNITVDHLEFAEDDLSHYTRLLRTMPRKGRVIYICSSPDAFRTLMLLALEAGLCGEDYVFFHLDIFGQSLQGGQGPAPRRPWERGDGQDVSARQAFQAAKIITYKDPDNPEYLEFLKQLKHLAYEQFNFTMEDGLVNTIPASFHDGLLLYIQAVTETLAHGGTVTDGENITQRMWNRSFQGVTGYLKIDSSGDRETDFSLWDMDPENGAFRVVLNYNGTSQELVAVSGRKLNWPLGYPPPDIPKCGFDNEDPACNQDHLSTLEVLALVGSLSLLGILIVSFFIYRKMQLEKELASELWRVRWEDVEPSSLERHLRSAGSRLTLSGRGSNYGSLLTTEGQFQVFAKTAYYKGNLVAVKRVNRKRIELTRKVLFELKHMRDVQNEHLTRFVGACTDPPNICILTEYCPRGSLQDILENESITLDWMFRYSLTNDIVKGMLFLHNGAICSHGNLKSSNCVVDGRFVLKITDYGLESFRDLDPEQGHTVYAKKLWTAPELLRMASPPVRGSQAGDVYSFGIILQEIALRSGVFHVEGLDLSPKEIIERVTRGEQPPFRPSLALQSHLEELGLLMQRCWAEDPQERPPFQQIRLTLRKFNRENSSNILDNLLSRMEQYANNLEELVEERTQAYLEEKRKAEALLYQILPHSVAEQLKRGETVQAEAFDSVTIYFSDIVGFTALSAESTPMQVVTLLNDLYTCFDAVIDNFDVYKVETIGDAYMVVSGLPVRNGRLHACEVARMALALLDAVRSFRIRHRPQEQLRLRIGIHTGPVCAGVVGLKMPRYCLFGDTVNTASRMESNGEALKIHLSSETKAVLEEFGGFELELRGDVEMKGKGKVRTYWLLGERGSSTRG


Experiments:
[1] = biological target: T1, rat NPRA; assay: cell-based or functional assay
[2] = biological target: T2, human NPRA; assay: cell-based or functional assay

Row | Binder | cGMP Assay (EC50, pM) w/BSA [1] [pM] | cGMP Assay (EC50, pM) w/Casein [1] [pM] | cGMP Assay (EC50, pM) w/BSA [2] [pM] | cGMP Assay (EC50, pM) w/Casein [2] [pM]
1 | {C20 diacid}-[γGlu]EKEKEKGS[4Pal]KRSSCFGGKIDRIGHQSGLGCPSFRHKITAKEDE-NH2 (disulfide 15-31) [Example 34] | 422000 | 1200 | 26100 | 291
2 | {C20 diacid}-[γGlu]EKEKEKGEK[βAla]RSSCFGGRIDRIGHYSGLGCPSFRHGGPSSGAPPPS-NH2 (disulfide 15-31) [Example 54] | 77200 | 796 | 19300 | 369
3 | EKXRSSCFGKRIDRIGHQSGLGCPSFRHGGKSSGAPPPS (HOOC-(CH2)18-CO-(γGlu)-EKEKEKG-PEG24-EK-βAla-RSS[CFGKRIDRIGHQSGLGC]PSFRHGGKSSGAPPPS-NH2; thioacetal linkage between the bracketed Cys) [Example 3] | 959000 | 36600 | 6920 | 980
4 | {C20 diacid}-[γGlu]EKEKEKGEKGRSSCFGGRIDRIGHYSGLGCPSLRHGGPSSGAPPPS-NH2 (disulfide 15-31) [Example 51] | 82700 | 909 | 11100 | 361
5 | SXRRSSCFGGRIDRIGHQSGLGCPSFRHGGPSSGAPPPS (HOOC-(CH2)18-CO-(γGlu)-EKEKEKG-PEG24-S-4Pal-RRSS[CFGGRIDRIGHQSGLGC]PSFRHGGPSSGAPPPS-NH2; thioacetal linkage between the bracketed Cys) [Example 61] | 463000 | 32000 | 9000 | 912
6 | {C20 diacid}-[γGlu]EKEKEKGEK[βAla]RSSCFGGRIDRIGHYSGLGCPSFRHGPSSGAPPPS-NH2 (bridge 15-31 via thioacetal) [Example 60] | 962000 | 4830 | 81700 | 453
7 | SLRRSSCFGGRIDRIGAQSGLGCNSFRY-NH2 (disulfide 7-23; N-terminus assumed; SMILES CC[C@H](C)[C@@H]1NC(=O)[C@H](CCCNC(=N)N)NC(=O)[C@H](CC(=O)O)NC(=O)[C@H]([C@@H](C)CC)NC(=O)[C@H](CCCNC(=N)N)NC(=O)CNC(=O)CNC(=O)[C@H](Cc2ccccc2)NC(=O)[C@@H](NC(=O)[C@H](CO)NC(=O)[C@H](CO)NC(=O)[C@H](CCCNC(=N)N)NC(=O)[C@H](CCCNC(=N)N)NC(=O)[C@H](CC(C)C)NC(=O)[C@@H](N)CO)CSSC[C@@H](C(=O)N[C@@H](CC(N)=O)C(=O)N[C@@H](CO)C(=O)N[C@@H](Cc2ccccc2)C(=O)N[C@@H](CCCNC(=N)N)C(=O)N[C@@H](Cc2ccc(O)cc2)C(N)=O)NC(=O)CNC(=O)[C@H](CC(C)C)NC(=O)CNC(=O)[C@H](CO)NC(=O)[C@H](CCC(N)=O)NC(=O)[C@H](C)NC(=O)CNC1=O) [rat ANP (amidated)] | 114 | 73 | 138 | 128
8 | {C20 diacid}-[γGlu]EKEKEKGS[4Pal]RRSSCFGGRIDRIGHQSGLGCPSFRHGGKSSGAPPPS-NH2 (bridge 15-31 via thioacetal) [Example 67] | 1.55e+06 | 18800 | 139000 | 1220
9 | {C20 diacid}-[γGlu]EKEKEKGEK[βAla]RSSCFGGRIDRIGHYSGLGCPSLRHGGPSSGAPPPS-NH2 (bridge 15-31 via thioacetal) [Example 63] | 785000 | 10600 | 63800 | 1090
10 | {C20 diacid}-[γGlu]EKEKEKGEK[βAla]RSSCFGGRIDRIGHYSGLGCPSFRHGGPSSGAPPPS-NH2 (bridge 15-31 via thioacetal) [Example 56] | 1.38e+06 | 11200 | 145000 | 855
11 | XEKEKEKGSXRRSSCFGGRIDRIGHQSGLGCPSFRHGGPSSGAPPPS (HOOC-(CH2)18-CO-(γGlu)-EKEKEKGS-4Pal-RRSS[CFGGRIDRIGHQSGLGC]PSFRHGGPSSGAPPPS-NH2; disulfide linkage between the bracketed Cys) [Example 1] | 81900 | 1810 | 11600 | 335
12 | XEKEKEKGSXRRSSCFGGRIDRIGHQSGLGCPSFRHGGPSSGAPPPS (not fully specified; HOOC-(CH2)18-CO-(γGlu)-EKEKEKGS-4Pal-RRSS[CFGGRIDRIGHQSGLGC]PSFRHGGPSSGAPPPS-NH2; thioacetal linkage between the bracketed Cys) [Example 69] | 804000 | – | 61400 | –
13 | XEKEKEKGSKXRSSCFGGRIDRIGHYSGLGCPSFRHGGPSSGAPPPS (HOOC-(CH2)18-CO-(γGlu)-EKEKEKGSK-βAla-RSS[CFGGRIDRIGHYSGLGC]PSFRHGGPSSGAPPPS-NH2; thioacetal linkage between the bracketed Cys) [Example 65] | – | 7420 | – | 614
14 | XEKEKEKGSXRRSSCFGGRIDRIGHQSGLGCPSFRHGGPSSGAPPPS (HOOC-(CH2)18-CO-(γGlu)-EKEKEKGS-4Pal-RRSS[CFGGRIDRIGHQSGLGC]PSFRHGGPSSGAPPPS-NH2; thioacetal linkage between the bracketed Cys) [Example 2] | 1.27e+06 | 14100 | 93400 | 1020
15 | {C20 diacid}-[γGlu]EKEKEKGS[4Pal]KRSSCFGGKIDRIGHQSGLGCPSFRHGPSSGAPPPS-NH2 (disulfide 15-31) [Example 33] | 112000 | 383 | 22200 | 199
16 | {C20 diacid}-[γGlu]EKEKEKGS[4Pal]RRSSCFGGRIGRIGHQSGLGCPSFRHGGPSSGAPPPS-NH2 (disulfide 15-31) [Example 29] | 1.91e+06 | 16800 | 32200 | 482
17 | {C20 diacid}-[γGlu]EKEKEKGS[4Pal]RRSSCFGGRIDRIGHQSGLGCPSFRHGGPPS[Aib]KPPPK-NH2 (bridge 15-31 via thioacetal) [Example 68] | 1.28e+06 | 12100 | – | 924
18 | {C20 diacid}-[γGlu]EKEKEKGKE[βAla]RSSCFGGRIDRIGHYSGLGCPSFRHGGPSSGAPPPS-NH2 (bridge 15-31 via thioacetal) [Example 58] | 1.38e+06 | 7150 | 104000 | 1220
19 | {C20 diacid}-[γGlu]EKEKEKGS[4Pal]RRSSCFGGRIDRIGHQSGLGCPSFRHSGAPPPSE-NH2 (disulfide 15-31) [Example 39] | 93300 | 439 | 9970 | 276
